Assay results: publication PMC10668032, “Altered binding affinity of SIX1-Q177R correlates with enhanced WNT5A and WNT pathway effector expression in Wilms tumor”

Key:
SIX1 [1] = molecular target: T1, SIX1 (human, UniProt Q15475 1-284); assay: EMSA; EMSA: Active Motif Gelshift or Thermo LightShift chemiluminescent kit binding buffer, no glycerol, no poly d(I-C), RT 25 min; protein dilutions 1-300 nM; 6% gel in 0.5x TBE; pH and salt not given; conditions: protein: recombinant; tags: N-terminal HA from pGEX-6p1-N-HA (GST removed with PreScission); label: biotin 3' end (both strands, Pierce 3' end-labeling kit); blunt
T1 sequence: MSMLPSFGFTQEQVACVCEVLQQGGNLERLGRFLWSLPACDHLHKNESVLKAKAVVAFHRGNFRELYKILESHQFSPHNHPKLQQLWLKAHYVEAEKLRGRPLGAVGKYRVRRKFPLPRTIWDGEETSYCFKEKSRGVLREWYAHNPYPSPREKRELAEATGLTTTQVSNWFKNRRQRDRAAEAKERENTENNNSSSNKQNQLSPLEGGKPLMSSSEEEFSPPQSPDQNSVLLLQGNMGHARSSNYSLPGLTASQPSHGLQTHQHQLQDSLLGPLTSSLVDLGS

SIX1 [2] = molecular target: T1, SIX1; assay: EMSA; modest increase in affinity vs N1; EMSA: Active Motif Gelshift or Thermo LightShift chemiluminescent kit binding buffer, no glycerol, no poly d(I-C), RT 25 min; protein dilutions 1-300 nM; 6% gel in 0.5x TBE; pH and salt not given; conditions: protein: recombinant; tags: N-terminal HA from pGEX-6p1-N-HA (GST removed with PreScission); label: biotin 3' end (both strands, Pierce 3' end-labeling kit); blunt

B1: WNT5A_promoter_EMSA (dsDNA)
DNA 1: CCCGCCCTAAGTGTCAAATTTCCTCCAGGGGAG
DNA 2: CTCCCCTGGAGGAAATTTGACACTTAGGGCGGG
SIX1 [1]
  binding signal: ~0.1 affinity relative to SIX1-Q177R on same probe

B2: WNT5A_promoter_EMSAmut (dsDNA)
DNA 1: CCCGCCCTAAGTATCAAATTTCCTCCAGGGGAG
DNA 2: CTCCCCTGGAGGAAATTTGATACTTAGGGCGGG
SIX1 [2]
  binding result: binds
